From patent publication US20150165065A1 (AVIDBIOTICS, published 2015)

Key:
FGFR3 (coated on wells) [1] = molecular target: T1, FGFR3 (coated on wells) (UniProt P22607 23-375, limits assumed); experiment: ELISA on FGFR3-coated wells (2 ug/ml), bound sMICA detected with NKG2D-Fc and anti-Fc-HRP
T1 construct: Coated at 2 ug/ml on Maxisorp plates; also called Fibroblast Growth Factor Receptor 3
T1 sequence (looked up): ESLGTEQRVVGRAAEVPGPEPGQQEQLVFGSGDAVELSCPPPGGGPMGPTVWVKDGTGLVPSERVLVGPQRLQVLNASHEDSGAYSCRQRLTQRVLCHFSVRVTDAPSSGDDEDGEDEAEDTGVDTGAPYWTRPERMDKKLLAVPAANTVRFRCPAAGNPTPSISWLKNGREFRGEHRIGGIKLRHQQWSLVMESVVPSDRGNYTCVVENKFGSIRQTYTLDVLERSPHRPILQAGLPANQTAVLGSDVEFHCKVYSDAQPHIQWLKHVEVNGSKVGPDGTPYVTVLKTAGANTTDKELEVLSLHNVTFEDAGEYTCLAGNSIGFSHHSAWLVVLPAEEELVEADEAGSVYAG
Description: The purified MICA-α3-iFv proteins were tested in a FGFR3-binding ELISA to confirm simultaneous binding to the FGFR3 target and the NKG2D receptor. FGFR3 in phosphate buffered saline (PBS) was coated onto Maxisorp plates at 2 ug/ml concentration. Each MICA protein was titrated, allowed to bind FGFR3 for 1 hour, and washed to remove unbound sMICA protein. The bound MICA-α3-iFv protein was detected using NKG2D-Fc and anti-Fc-HRP conjugate.

FGFR3 (coated on wells) [2] = molecular target: T1, FGFR3 (coated on wells); experiment: ELISA on FGFR3-coated wells after 1 hour at 80 C and 1 hour back at room temperature [panel B]

- EC50 (read off the curve) (FGFR3 (coated on wells) [1]): ~2 nM
- EC50 (read off the curve) (FGFR3 (coated on wells) [2]): ~5 nM
B1: MICA-α3-iFv.2 (designed binder)
chain: EPHSLRYNLTVLSWDGSVQSGFLTEVHLDGQPFLRCDRQKCRAKPQGQWAEDVLGNKTWDRETRDLTGNGKDLRMTLAHIKDQKEGLHSLQEIRVCEIHEDNSTRSSQHFYYDGELFLSQNLETKEWTMPQSSRAQTLAMNVRNFLKEDAMKTKTHYHAMHADCLQELRRYLKSGVVLRRTVPPMVQVTRSEASGGSGDRVTITCRASQDVSTAVAWYQQKPGKAPKLLIYSASFLYSGVPSRFSGSGSGTDFTLTISSLQPEDFATYYCQQSYTTPPTFGQGTKVEIKGGSSRSSSSGGGGSGGGGEVQLVESGGGLVQPGGSLRLSCAASGFTFTSTGISWVRQAPGKGLEWVGRIYPTNGSTNYADSVKGRFTISADTSKNTAYLQMNSLRAEDTAVYYCARTYGIYDLYVDYTEYVMDYWGQGTLVTVSSGGSSRSSSSGGGGSGGGGDIQMTQSPSSLSASGGSGQITVTCRASGFYPWNITLSWRQDGVSLSHDTQQWGDVLPDGQGTYQTWVATRISQGEEQRFTCYMEHSGQHSTHPVPSGKGSHHHHHH
